# Laboratory results reported in patent publication US9707274B2, “Methods for preventing and treating post-traumatic stress disorder (PTSD)” (priority 2007, dated 2017).
# No end group written: not given here.
# Legend:
# [1] = cited from earlier work
# [2] = test system: saliva and plasma cortisol response; conditions: general intranasal insulin 40 IU, 26 normal adult men, placebo controlled; cited from earlier work
# α-adrenergic = conditions: topical nasal application; cited from earlier work
# [3] = set-up: species or system rats; conditions: rat, in vivo
# Text: Incorporation of at least one vasoconstrictor in a nasal formulation including at least one therapeutic compound, i.e., a pharmaceutical composition, enhances intranasal therapeutic compounds targeting of therapeutics to, inter alia, the CNS, meninges and lymphatics by reducing absorption into the blood, increasing concentrations in, inter alia, the CNS, or both. […] Inclusion of a vasoconstrictor in the intranasal formulation (IN PHE) further enhances brain targeting of HC compared to the intravenous delivery from the previous study (Table 2, IN PHE vs. IV). In addition, compared to intranasal delivery with no additives, intranasal administration of HC in combination with 1% PHE further enhances intranasal drug targeting to the brain, with increased targeting to the olfactory bulbs (7-fold increase), anterior olfactory nucleus (2-fold increase), frontal cortex (2-fold increase), hippocampus (2-fold increase), and hypothalamus (2-fold increase) (Table 2, IN PHE vs. IN). 1% PHE also enhances intranasal drug targeting to the superficial and deep cervical lymph nodes (5 to 6-fold) and to the meninges surrounding the brain (2-fold). Therefore, inclusion of a vasoconstrictor in an intranasal formulation is a novel strategy to further enhance intranasal drug targeting to the brain and lymphatics compared to other routes of administration. […]
# [4] = rat, in vivo
# Procedure: Both vasoconstricting agents are α-adrenergic agonists with short duration of action (4-6 hours). The therapeutic compound selected was hypocretin-1 (HC, MW 3500), a peptide with therapeutic potential for treating narcolepsy. In addition to determining the effect of vasoconstrictors on the intranasal delivery of hypocretin-1 to the CNS, peripheral tissues and blood, vasoconstrictor effects on the drug targeting index (DTI) were also examined.
# Thirty minutes following onset of intranasal delivery, rats were perfused with saline and fixed with 4% paraformaldehyde. […] The DTI for each tissue was calculated by dividing the ratio of mean tissue concentration to blood area under the curve (AUC) of the vasoconstrictor group by the ratio of mean tissue concentration to blood AUC of the control group. DTI>1.0 indicated a drug targeting advantage with the vasoconstrictor.
# [5] = Data set 1: tissue and blood distribution of intranasal HC with and without 1% PHE (pretreatment intervals 0, 5, 15 min merged); format: in vivo, rats
# Text: We investigated whether incorporation of a vasoconstrictor (phenylephrine, PHE) in the nasal formulation enhances drug targeting of an intranasally applied neuropeptide (hypocretin-1, HC) to the brain in rodents. Several factors may effect CNS concentrations of HC following intranasal administration of HC in the presence of PHE, including the dose of vasoconstrictor, the time after intranasal delivery, and the pretreatment time interval. PHE is commonly used at a dose of 1% for nasal decongestion and topical nasal application of PHE results in a rapid onset of action and duration of action of approximately 4 hours. Ideally, it would be preferred to have a nasal formulation where the vasoconstrictor and CNS drug are administered together, without the need for pretreatment of the nasal cavity with vasoconstrictor. Clearly this would be more convenient than having to intranasally pretreat, wait a period of time (5 min or 15 min), and then intranasally administer the CNS drug with additional vasoconstrictor. However, waiting a short period of time may be a necessary step to allow the vasoconstrictor to activate adrenergic receptors located on blood vessels in the nasal cavity to result in constriction. Thus, in these experiments, three pretreatment time intervals were investigated: 0 min (or no pretreatment), 5 min, 15 min, to determine the time interval necessary to wait to allow the intranasally applied 1% PHE to take effect. Anesthetized rats were sacrificed at 30 minutes following intranasal delivery of HC and 1% PHE, since typically high brain concentrations are achieved within 25-30 minutes of intranasal administration.
# One-way ANOVAs comparing tissue concentrations in the three groups from the PHE-treated animals were also performed. […] Thus, the therapeutic compound(s) and vasoconstrictor(s) may be combined in a pharmaceutical composition while retaining full therapeutic benefit of the present invention. […] As a result, data obtained from control animals with different pretreatment time intervals were merged and data obtained from PHE-treated animals with different pretreatment time intervals were merged. Statistical comparisons were made between tissue concentrations in control animals (n=28) and PHE-treated animals (n=23).
# [6] = test system: human brain muscarinic cholinergic receptor; conditions: in vitro; cited from earlier work
compound,measurement,setting,value
insulin,"Memory, attention and functioning in Alzheimer's patients",[1]; intranasal insulin over a 21 day period,"improve memory, attention and functioning"
same,Blood levels of insulin or glucose,"[1]; intranasal insulin treatment, healthy adults",no change
same,Memory in healthy adults,[1]; intranasal insulin treatment,improves memory
same,Memory in patients with Alzheimer's disease,"[1]; intranasal insulin, twenty minutes after a single treatment",improve memory
same,Saliva and plasma cortisol response to the Trier Social Stress Test,[2],significantly diminished
"CNC[C@H](O)c1cccc(O)c1 [PHE, phenylephrine]",Duration of action,α-adrenergic,approximately 4 hours
"hypocretin-1 (QPLPDCCRQKTCSCRLYELLHGAGNHAAGILTL; ends and bridges not checked; also: 125I label, site not given here; UniProt O43612 34-66, looked up) [HC]","HC drug targeting, enhancement to the meninges surrounding the brain",[3],2 fold
same,Respiration during intranasal delivery,[4],did not lead to any improvement in respiration
same,Respiratory distress in animals during intranasal delivery,[4],fewer incidences of respiratory distress
same,"Concentration of HC, Trigeminal Nerve","[5]; intranasal HC + 1% PHE, rats, 30 min",1.71 ± 0.15 nM
same,"Concentration of HC, Medulla","[5]; intranasal HC control (no PHE), rats, 30 min",1.26 ± 0.22 nM
same,"HC targeting (tissue-to-blood ratio), 1% PHE vs control, trigeminal nerve","[5]; rat, in vivo",not significantly different
same,"HC targeting (tissue-to-blood ratio), increase with 1% PHE vs control, anterior olfactory nucleus","[5]; rat, in vivo",2.4 fold
same,"HC targeting (tissue-to-blood ratio), increase with 1% PHE vs control, cerebellum","[5]; rat, in vivo",1.7 fold
same,"HC targeting (tissue-to-blood ratio), increase with 1% PHE vs control, deep cervical lymph nodes","[5]; rat, in vivo",5.7 fold
same,"HC targeting (tissue-to-blood ratio), increase with 1% PHE vs control, dorsal meninges","[5]; rat, in vivo",1.7 fold
same,"HC targeting (tissue-to-blood ratio), increase with 1% PHE vs control, frontal cortex","[5]; rat, in vivo",2.3 fold
same,"HC targeting (tissue-to-blood ratio), increase with 1% PHE vs control, medulla","[5]; rat, in vivo",1.7 fold
same,"HC targeting (tissue-to-blood ratio), increase with 1% PHE vs control, midbrain","[5]; rat, in vivo",1.7 fold
same,"HC targeting (tissue-to-blood ratio), increase with 1% PHE vs control, olfactory bulbs","[5]; rat, in vivo",6.8 fold
same,"HC targeting (tissue-to-blood ratio), increase with 1% PHE vs control, superficial cervical lymph nodes","[5]; rat, in vivo",5.7 fold
same,"HC targeting (tissue-to-blood ratio), increase with 1% PHE vs control, ventral meninges","[5]; rat, in vivo",2.9 fold
O=P(O)(O)OP(=O)(O)O [pyrophosphate],Concentration protecting the receptor from inactivation by oxidants such as heme,[6],1-5 μm
